Experimental data: patent US20250075006A1 (SHANDONG SIMCERE BIOPHARMACEUTICAL, published 2025)
Read-outs that look alike come from different tables or passages of the source.

T1: Cyno GUCY2C ECD (his-tagged cynomolgus monkey GUCY2C protein extracellular domain fusion protein) (cynomolgus monkey, UniProt P25092 24-430 (human entry))
T1 construct: also called monkey GUCY2C-his; monkey GUCY2C-His
T1 chain: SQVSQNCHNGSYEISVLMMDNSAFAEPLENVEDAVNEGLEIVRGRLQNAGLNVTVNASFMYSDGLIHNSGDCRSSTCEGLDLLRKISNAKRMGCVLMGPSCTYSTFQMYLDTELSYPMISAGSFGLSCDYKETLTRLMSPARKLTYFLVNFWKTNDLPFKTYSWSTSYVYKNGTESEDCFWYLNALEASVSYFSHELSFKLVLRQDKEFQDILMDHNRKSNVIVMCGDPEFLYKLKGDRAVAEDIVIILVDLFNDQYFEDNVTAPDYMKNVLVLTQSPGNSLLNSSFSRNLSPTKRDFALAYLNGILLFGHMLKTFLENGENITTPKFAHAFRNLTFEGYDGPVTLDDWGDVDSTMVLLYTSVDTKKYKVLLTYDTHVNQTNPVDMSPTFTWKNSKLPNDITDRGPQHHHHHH


Experiments:
[1] = biological target: T1, Cyno GUCY2C ECD (his-tagged cynomolgus …); assay: ELISA, plate coated with monkey GUCY2C-his, OD450
[2] = biological target: T2, Human GUCY2C ECD (his-tagged human GUCY2C protein extracellular domain fusion protein) (human, UniProt P25092 24-430); assay: ELISA, plate coated with human GUCY2C-his, OD450
T2 construct: also called human GUCY2C-his; human GUCY2C-His
Method: (§1) A human GUCY2C-his protein was diluted with PBS to a final concentration of 2 μg/mL and then added to a 96-well ELISA plate at 50 μL/well. The plate was sealed with a plastic film and incubated at 4° C. overnight. The next day, the plate was washed 2 times with PBST, and a blocking buffer [PBS+2% (w/w) BSA] was added for blocking at room temperature for 2 h. The blocking buffer was discarded, and the recombinant antibody and positive and negative control antibody with a starting concentration of 100 nM serially diluted by 3 folds were added at 50 μL/well. After incubation at 37° C. for 1 h, the plate was washed 3 times with PBST. A horseradish peroxidase (HRP)—labeled secondary antibody (purchased from Merck, Cat. No. AP113P) was added for incubation at 37° C. for 1 h, and the plate was washed 5 times with PBST. A TMB substrate was added at 50 μL/well for incubation at room temperature for 10 min, and then a stop solution (1.0 M HCl) was added at 50 μL/well. The OD450 nm values were read by an ELISA plate reader (Multimode Plate Reader, EnSight, purchased from Perkin Elmer).

[3] = biological target: T2, Human GUCY2C ECD (his-tagged human …); assay: SPR Biacore, antibody on Protein A, antigen injected
Method: The strength of antibody-antigen binding was assayed with a BIAcore 8K instrument using a Protein A capture method. First, Protein A was immobilized onto a CM4 chip (purchased from GE, BR-1005-34) using an amino coupling method. According to the instruction of the Amine Coupling Kit (purchased from GE, BR100633), NHS and EDC were mixed with HBS-EP+pH 7.4 as a mobile phase to activate the chip for about 600 s; the Protein A was diluted to 50 μg/mL with 10 mM sodium acetate (pH 4.5) and injected for 600 s, and finally, the remaining activated sites were blocked with ethanolamine. Then, the affinity of the antibody for the antigen was assayed using a multi-cycle kinetic method; in each cycle, first, the antibody to be tested was captured using the Protein A chip, and then a single concentration of antigen protein was injected. The association and dissociation processes of the antibody with the antigen protein were recorded, and finally, the chip was regenerated using Glycine pH 1.5, wherein the mobile phase was HBS-EP+(10 mM HEPES, 150 mM NaCl, 3 mM EDTA, 0.05% surfactant P20), the flow rate was 30 μL/min, the regeneration time was 30 s, and the assay temperature was 25° C. Finally, according to a 1:1 binding model, the data were analyzed, and the antibody-antigen binding kinetics parameters, including the association rate constant Ka, the dissociation rate constant Kd, the equilibrium dissociation constant KD, and the maximum binding signal Rmax, were fitted.
The association rate (Ka), dissociation rate (Kd), and binding affinity (KD) of the recombinant antibodies Lab306-huFc, Lab322-huFc, and Lab323-huFc with the human GUCY2C protein are shown in Table 5. The positive control antibody has good binding activity at the protein level, but has very weak binding at the cellular level. Lab322-huFc and Lab323-huFc, although weak in affinity, bind well to the cellular level, presumably due to differences in the conformation of the proteins and proteins at the viable cellular level.

[4] = biological target: T2, Human GUCY2C ECD (his-tagged human …); assay: ELISA, plate coated with human GUCY2C-his, OD450; remark: listed apart in the source
Method: To assay the binding activity of the humanized antibodies to human GUCY2C-his protein, a human GUCY2C-his protein was diluted with PBS to a final concentration of 2 μg/mL and then added to a 96-well ELISA plate at 50 μL/well. The plate was sealed with a plastic film and incubated at 4° C. overnight. The next day, the plate was washed 2 times with PBST, and a blocking buffer [PBS+2% (w/w) BSA] was added for blocking at room temperature for 2 h. The blocking buffer was discarded, and the plate was washed 2 times with PBST. An antibody to be tested or a control antibody diluted in a 1:3 gradient from a starting concentration of 100 nM was added at 50 μL/well. After incubation at 37° C. for 1 h, the plate was washed 3 times with PBST. A horseradish peroxidase (HRP)—labeled secondary antibody (purchased from Merck, Cat. No. AP113P) was added for incubation at 37° C. for 1 h, and the plate was washed 5 times with PBST. A TMB substrate was added at 50 µL/well for incubation at room temperature for 5-10 min, and then a stop solution (1.0 M HCl) was added at 50 μL/well. OD450 nm values were read using an ELISA plate reader (Multimode Plate Reader, EnSight, purchased from Perkin Elmer).

[5] = biological target: T1, Cyno GUCY2C ECD (his-tagged cynomolgus …); assay: ELISA, plate coated with monkey GUCY2C-his, OD450
Method: as §1
The monkey GUCY2C-his and murine GUCY2C-his proteins were subjected to ELISA and data analysis according to the method described in Example 4.2. The recombinant antibodies Lab306-huFc, Lab322-huFc, and Lab323-huFc have a relatively good binding activity with the monkey GUCY2C-his protein. […]

T2 sequence (P25092 other isoform, or with tags, fused parts or gaps): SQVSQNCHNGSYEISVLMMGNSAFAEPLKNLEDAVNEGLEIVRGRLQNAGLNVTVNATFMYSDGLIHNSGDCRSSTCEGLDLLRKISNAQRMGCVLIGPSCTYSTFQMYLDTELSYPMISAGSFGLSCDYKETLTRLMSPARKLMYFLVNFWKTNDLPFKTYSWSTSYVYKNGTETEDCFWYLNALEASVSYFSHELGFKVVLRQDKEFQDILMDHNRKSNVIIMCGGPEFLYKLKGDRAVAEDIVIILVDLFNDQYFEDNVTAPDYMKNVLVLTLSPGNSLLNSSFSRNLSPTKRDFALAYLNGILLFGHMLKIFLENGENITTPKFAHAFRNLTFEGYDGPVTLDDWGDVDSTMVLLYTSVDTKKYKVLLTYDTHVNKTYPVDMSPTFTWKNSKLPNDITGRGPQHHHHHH

| Binder | EC50 (read off the curve) [1] [nM] | EC50 (read off the curve) [2] [nM] | Kd [3] [nM] | koff [3] [s⁻¹] | kon [3] [M⁻¹ s⁻¹] | EC50 (read off the curve) [4] [nM] | EC50 (read off the curve) [5] [nM] |
| --- | --- | --- | --- | --- | --- | --- | --- |
| 5F9-hIgG1 (antibody, V domains shown, also called positive control antibody) VH: QVQLQQWGAGLLKPSETLSLTCAVFGGSFSGYYWSWIRQPPGKGLEWIGEINHRGNTNDNPSLKSRVTISVDTSKNQFALKLSSVTAADTAVYYCARERGYTYGNFDHWGQGTLVTVSS VL: EIVMTQSPATLSVSPGERATLSCRASQSVSRNLAWYQQKPGQAPRLLIYGASTRATGIPARFSGSGSGTEFTLTIGSLQSEDFAVYYCQQYKTWPRTFGQGTNVEIKR | ~0.03 | ~0.05 | 2.19 | 0.00028 | 128000 | ~0.04 | ~0.08 |
| PF1608-hIgG1 (antibody, V domains shown, also called PF1608-hlgG1; positive control antibody) VH: EVQLVESGGGLVQPGGSLRLSCAASGFTFSSYWMHWVRQAPGKGLEWIGEIKPSNELTNVHEKFKDRFTISVDKAKNSAYLQMNSLRAEDTAVYYCTRTITTTEGYWFFDVWGQGTLVTVSS VL: DIQLTQSPSSLSASVGDRVTITCRASESVDYYGSSLLQWYQQKPGKAPKLLIYAASKLASGVPSRFSGSGSGTDFTLTISSLQPEDFATYYCQQTRKAYTFGQGTKLEIKR | ~0.05 | ~0.09 | 1.61 | 0.000235 | 146000 | ~0.05 | ~0.08 |
